Target: T1, extracellular domain of human DCC (M1-N1097) with a C-terminal Fc tag (human, UniProt P43146 26-1097)
T1 construct: signal peptide in the construct; Deleted in Colorectal Cancer (DCC), human, extracellular domain, amino acids 1-1097; On the array it was loaded on protein-A microbeads 1:1 with Cy5-labeled human IgG; in SPR it was amine-coupled to the chip; also called DCC-Fc; source: CHO cells, transient transfection, purified (protein A-Sepharose, gel filtration); not shown: Fc (human IgG), C-terminal, kept
Experiment: peptide or protein array; DCC-Fc mixed 1:1 with Cy5-labeled hIgG on multivalent protein-A microbeads, incubated with extracellular protein microarrays (Library 1: 1,334 samples; Library 2: 624 samples) on epoxysilane slides; washed with PBS-T; Cy5 fluorescence; two replicate screens
Conditions: both partners purified

T1 sequence (P43146 26-1097): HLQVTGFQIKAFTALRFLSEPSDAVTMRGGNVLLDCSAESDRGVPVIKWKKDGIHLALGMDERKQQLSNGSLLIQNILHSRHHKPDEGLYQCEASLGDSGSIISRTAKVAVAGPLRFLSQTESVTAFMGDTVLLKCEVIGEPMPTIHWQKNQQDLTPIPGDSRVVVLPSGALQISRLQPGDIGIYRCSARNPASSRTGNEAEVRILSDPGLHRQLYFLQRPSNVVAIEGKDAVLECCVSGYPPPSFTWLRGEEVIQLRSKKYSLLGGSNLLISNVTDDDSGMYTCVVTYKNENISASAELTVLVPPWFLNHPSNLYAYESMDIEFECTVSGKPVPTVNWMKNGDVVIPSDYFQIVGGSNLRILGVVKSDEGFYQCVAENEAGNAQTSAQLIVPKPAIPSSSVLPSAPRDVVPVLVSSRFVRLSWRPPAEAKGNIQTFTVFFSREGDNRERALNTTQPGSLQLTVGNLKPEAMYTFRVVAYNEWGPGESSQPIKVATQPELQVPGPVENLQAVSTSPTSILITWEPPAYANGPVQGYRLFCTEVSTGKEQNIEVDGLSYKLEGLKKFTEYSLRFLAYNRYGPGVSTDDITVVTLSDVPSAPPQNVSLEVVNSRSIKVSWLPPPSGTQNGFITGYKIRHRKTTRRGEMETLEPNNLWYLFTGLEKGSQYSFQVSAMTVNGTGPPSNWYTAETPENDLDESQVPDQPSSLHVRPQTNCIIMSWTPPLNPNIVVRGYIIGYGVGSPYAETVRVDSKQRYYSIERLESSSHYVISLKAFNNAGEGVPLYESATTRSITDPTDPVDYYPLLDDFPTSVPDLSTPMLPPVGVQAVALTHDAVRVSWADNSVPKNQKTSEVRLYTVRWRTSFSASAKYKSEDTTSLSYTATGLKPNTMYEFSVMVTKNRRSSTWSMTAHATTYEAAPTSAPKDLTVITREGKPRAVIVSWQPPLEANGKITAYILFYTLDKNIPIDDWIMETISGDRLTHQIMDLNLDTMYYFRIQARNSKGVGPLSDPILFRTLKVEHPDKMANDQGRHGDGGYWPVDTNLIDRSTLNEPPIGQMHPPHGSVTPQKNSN

B1: full length CBLN4 C-terminal His (ligand, human, UniProt Q9NTU7 28-201, looked up)
chain: QNDTEPIVLEGKCLVVCDSNPATDSKGSSSSPLGISVRAANSKVAFSAVRSTNHEPSEMSNKTRIIYFDQILVNVGNFFTLESVFVAPRKGIYSFSFHVIKVYQSQTIQVNLMLNGKPVISAFAGDKDVTREAATNGVLLYLDKEDKVYLKLEKGNLVGGWQYSTFSGFLVFPL
notes: Cerebellin 4 (CBLN4), full length; also called CBLN4-His
binding result: binds

Reference: PMC3882260, “Defining the Ligand Specificity of the Deleted in Colorectal Cancer (DCC) Receptor” (PLoS ONE, 2014)
